Data from paper PMC6582347.

How the values were obtained:
[1] = tested on: Gal4(1-147) (Saccharomyces cerevisiae); test: ensemble FRET titration; conditions: FRET (Gal4): 130 mM NaCl, 10 mM Tris-HCl pH 8, 0.01% Tween 20, 10% glycerol, 0.5 nM substrate, PIFE (LexA): 130 mM NaCl, 10 mM Tris pH 8, 10% glycerol, 0.005% …
[2] = tested on: LexA; test: PIFE titration; conditions: FRET (Gal4): 130 mM NaCl, 10 mM Tris-HCl pH 8, 0.01% Tween 20, 10% glycerol, 0.5 nM substrate, PIFE (LexA): 130 mM NaCl, 10 mM Tris pH 8, 10% glycerol, 0.005% …

601-Gal4-S hexasome (H2A-H2B proximal to Gal4 site)
K half ([1]; hexasome, dimer-proximal site, smFRET kon 0.0052 s-1 nM-1, koff 0.37 s-1): 47 nM

601-Gal4-S nucleosome
K half ([1]; nucleosome, smFRET kon 0.011 s-1 nM-1, koff 0.32 s-1): 19.6 nM

601-LexA-W hexasome (H2A-H2B distal LexA site)
K half ([2]; hexasome, dimer-distal site): 0.25 nM

DNA-LexA
K half ([2]; naked DNA, Cy5-aminoC6-dT internal in reverse strand): 0.3 nM
